From the nanobody polyreactivity screen of Harvey et al. (2022)

Assay: yeast display, Sf9 membrane polyspecificity reagent, FACS + sequencing; frameworks hold sequencing errors
Procedure, shortened: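 After 36–48 hours of galactose induction, yeast (Saccharomyces cerevisiae BJ5465) displaying a synthetic nanobody library were stained at 4 °C for 1 hour with 10% biotinylated, detergent-solubilized Sf9 membrane reagent. Streptavidin microbeads enriched the stained cells before FACS sorting into low and high (top ~1%) gates on anti-HA and streptavidin fluorescence. Each clone's polyreactivity label reflects its gate of origin.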

| Sequence | polyreactivity (PSR sort gate) |
| --- | --- |
| QVQLVESGGGLVQAGGSLRLSCAPSGRIFQWYAMGWYRQAPGKERELVAAIRNGGTTNYADSVKGRFTISRDNAKNTVYLQMNSVIPVDTAVYYCNADKYRTWDFQPRYPGGYWGQGTQVTVSS | low polyreactivity |
| QVQLVESGGGLVQAGGSLRLSCAASGFTFRYNAMGWYRQAPGKEREFVAAITVTGGSTYYADSVKGRFTISRDNAKNTVYLQMNCLKPEDTAVYYCNAYRYTSSKFGYWGQGTQVTVSS | low polyreactivity |
| QVQLVESGGGLVQAGGSLRLSCAASGSTFRAYAMGWYRQAPGKERELVAAISSGGSTYYADSVKGRFTISRDNAKITVYLQMNCLKPEDTAVYHCAKGWYYVSPYGYRKGVYYWGQGTKVTVSS | high polyreactivity |
| QVQLVESGGGLDQAGGRLRLSCAASGITVGYNDMGRYRQARGKERELVAAINRGASTNYADSVKGRFTISRDNAKNTVYFQMNCLKPEDTAVYYCNADHRDTFIWVGLPHMDYWGQGTQVTVSS | low polyreactivity |
| QVQLVESRGGLVQAGGSLRLSSAASGITFGRNPMGWYRQAPGKERELVAAIESGGNTYADSVKGRFTISRDNAKNTVYLQMNSLKPEDTAVYYCAVDGGEFSSYGYWGQGTQVTVSS | low polyreactivity |
| QVQLVESGGGLVQAGGSLRLSCAASGFTFAPNAMGWYRQAPGKEREFVAVITYRSTSTFYADSVKGRFTISRDNAKNTVYLQMNSLKPEDTAVYYCNAKYLWYGRYNYWGQGTQVTVSS | high polyreactivity |
| QVQLVESGGGLVQAGGSLRLSCAASGFTFNYYAMGWYRQAHGKEREFVAAISRGGGRTYYADSVKGRFTISRDNAKNTVYLQMNSLKPEDTAVYYCAAQSVPYAYRLASYDYWGQGTQVTVSS | high polyreactivity |
| QVQLVESGGGLVQAGGSLRLSCAASGITFAWNAMGWYRPAPGKEREFVAAINWSGGSTYYADSVKGRFTISRDNAKNTVYLQMNSLKPEDTAVYYCAAYKRSYYPRTLYDYWGQGTQVTVSS | high polyreactivity |
| QVQLVESGGGLVQAGGSLRLSCAASGLIFSYNAMGWYRQAPGKERELVATIRRVGSTNYADSVKGRFTISRDNAKNTVYLQMNSLKPEDTAVYYCAARSLRYGRGMYYWGQGTQVTVSS | high polyreactivity |
| QVQIVESGGGLVQAGGSLRLSCPASGSTFTRYPMGWYSQAPGKERELVAAISYSGSSTYYADSVKGRFTISRDNAKNTVYLEMICLIPEDTAVYYCAAGKQAPAVNYGYYYWGQCTQVTVSS | low polyreactivity |
| QVQLVESGGGLVQAGGSLRLSCAASGFTFVSYAMGGYRQAPGKERELVASISSGGSTYYADSVKGRFTISRDNAKNTVYLQMNSLKPEDTAVYYCAAYSRWGRWFTIYNYWGQGTQVTVSS | high polyreactivity |
| PVQLQQSGSGLVQAGGSLRLSCAASGYISLGDNKGWYRQAPGKEREFDATISVGGITYYVDSVKGPFTISRDIAKNTVYLQMNSVKPEDTAVYYCAALDIYYLRYYYWGQGTQVTLSS | low polyreactivity |
| QGQLVESGGGLVQAGGSLRLSCAASGFTFRGYAMGWYRQAPGKERELVATITSGGDTNDADSVKGRFTISRDNAKKTVYLQMNSLKPEDTAVYYCAAHDWEFVEEAGPVPWTPYDYWGQGTQVTVSS | low polyreactivity |
| QVQLVESGGGLVQAGGSLRLSCAASGSIFYRNAMGWYRQAPGKERELVAVITRRGGRTYYADSVKGRFTISRDNAKNTVDLQMNSLKPEDTAVYYCNADTANYADGLDYWGQGTQVTVSS | low polyreactivity |
| QVQLVETGVGIVQAGGSLRLSCASSGSNCPLYAMGWYRQAPGKEREFVAAIRWIGGSTYYADSVKRRFTNSRDYAKNSVYLQMISLKPVDTAVYYCAAVYVVSAFDYWGQGTQVSVSS | low polyreactivity |
| QVQLGESAGGLVQAGGSLRLSCAASGFTFYPYAMGWYRQAPGKEREFVAAITWRGASTYYADSVKGRFTISRDNGKNTVYLQMNSLKPEDTAVYYCNARWRVPRGYDYWGQGTQVTVSS | high polyreactivity |
| QVQLVESGGGLVQAGGSLRLSCAASGRTFYIYAMGWYRQAPGKERELVAAISTTGGRTYYADSVKGRFTISRDNAKNTVYLQMNSLKPVDTAVYFCAAPARTRYDYWGQGTQVTVSS | high polyreactivity |
| QVQLEESGGGLDQAGGSLRLSCAASGRTLATYAMGWYRQAPGKERELVAAISSSGTRTYYADSVKGRFTISRDNAKNTVYFQMNSLNPEDTAVYYCNAGPGYDYWGQGTQLTVSS | high polyreactivity |
| QVQLVESGGGLVQAGGTLRLSCAASGRIFTRYAMGWYRQAPGKERELVAAISYGGGVTYYADSVKGRFTISRDNAKNTVYLQMNSLKPEDTAVYYCATDDPLSQINEKGMDYWGQGTQVTVSS | low polyreactivity |
| QVQLVESGGGLVQAGGSLRLSCAASGRIFQKYAMGWYRQAPGKERELVAAITTSGGSTYYADSVKGRFTISRDNAKNTVYLQMNSLKPEDTAVYYCAAKSTLSKEGYWGQGTHVTVSS | high polyreactivity |
| QVQLVESGGGLVQAGGSLRLSCAASGSTLQVYAMGWYREAPGKERELVAAISKSGGRTYYADSVKGRFSISRDNAKNTFYLQMNSLKPEDTAVYYCAADVGTAQSTYGYWGQGTQVTVSS | high polyreactivity |
| QVQLVESGGGLVQAGGSLRFSCAASGTFVPYAMGWYRQAPGKEMELVARITWRGGSTYYADSVKGRFTISRDNAKNTVYLQMNSLKPEDTAVYYCATVSDNRYYYWGQGTQVTVSS | low polyreactivity |

| Sequence | polyreactivity (PSR sort gate) |
| --- | --- |
| QVQLVESGGGLVQAGGSLRLSCAASGYIFYTYAMGCYRQAPGKERELVAGISGSGGSTYYADSVKGRFTISRDNAKNTVYLQMNSLNPEETAVYYCAKDIYQIGYRRYDSWGQGTQVTVSS | low polyreactivity |
| QVQLVESGGGLVQAGGSLRLSCAASGRTFRRNAMGWYRQAPGKERELVAAISWRGVSTYYADSVKGRFTISRDNAKNTVYLQMNSLKPEDNALYYCAVDFPYTRRDYWGQGPQVTVSS | high polyreactivity |
| QVQLVESGGGLVQAGGSLRLSCAASGSIFGFYAMGWDRQAPGKERELVAAIRWRDGRTYYADSVKGRFTISRDNAKNTVYLQMNSLKPEDTAVYYCAAGTPWAYDYWGQGTQVTVSS | high polyreactivity |
| QVQLVESGGGLVQAGGSLRLSCAASGFIFRVYTMGWYRQAPGKERELVAAISYRGGRTYYADSVKGRFTISRDNAKNTVYLQMNSQKPEDTAVYYCAADRVNREFDYWGQGTQVTVSS | high polyreactivity |
| QVQLQESGGGLVQAGGSLRLSCAASGNISVTGFMGWYRQAPGKERELVASIGIGGTTYYADSVKGRFSISRDNAKNTVYLQMNSLKPEDTAVYYCAARYLYYAYSYWCQGTQVTVSS | low polyreactivity |
| QVQLVESGGGLVQAGGSLRLSCAASGSTFFGNTMGWYRQAPGKERELVAAITYRGSTYYADSVKGRFTISRDNAKNTVYLQMNSLKPEDTAVYYCAADGRWYNSESEYDYWGQGTQVTVSS | low polyreactivity |
| QVQLVESGGGLVQAGGSLRLSCAASGSIFPFNAMGWYRPAPGKERELVAAITSGGSTNYADSVKGRFTISRDNAKNTVYFQMNSLKPEDTAVYYCAADWRYWRWAFDYWGQGTQVTVSS | high polyreactivity |
| QVQLVESGGGLVQAGGSLRLSCAASGFIFVGYAMGWYRQAPGKERELVAAISWDGGSTDYADSVKGRFTISRDNAKNTVYLQMNSLKPEDTAVYYCAASYQYWGFWYEYWGQGTQVTVSS | high polyreactivity |
| QVQLVESGGGLVQAGGSLRLSCAASGSIFGFNAMGWYRQAPGKERELVAGITSGDRTNYADSVKGRFTISRDNAKNTVYLQMNSLKPEDTAVYYCAARKYVFFKMYYWGQGTQVTVSS | low polyreactivity |
| QVQLVESGGGLVQAGGSLRLTCAASGYIFGIYAMGWYRQAPGKERELVAAITTSSGSTYADSVKGRFTISRDNAKNTVYLQMNSLKPEDTAVYYCAADGYLYSYPGHRRASYDYWGQGTQVTVSS | low polyreactivity |
| QVQLVESGGGLVQAGGSLRLSCAASGFIFPEYAMGWYRQAPGKERELVAAINWSGGNTYYADSVKGRFTISRDNAKNTVYLQMNSLKPEDTAVYYCNVDDWVTDDDYWGQGTQVTVSS | low polyreactivity |
| QVQLVESGGGLVQAGGSLRLSCAASGRTFDSYTMGWYRQAPGKERELVADITFTGGSTYYADSVKGRFTISRDNAKNTVYLQMNSLKPEDTAVYYCNADREYKWYFRYDYWGQGTQVTVSS | low polyreactivity |
| QVQLVESGGGLVQAGGSLRLICAASGSTFSSYAMGLYIQAPGKEREFVAAINTDGGSTYYADSVKGRFTISRDNAKNTVYLQMNSLKPEDTAVYYCAADDISLAAHFDSWGQGTQVTVSS | low polyreactivity |
| QVQLVESGGGLVQAGGSLRLSCAASGRTFRQYAMGWSRQAPGKERELVAGITASGGSTSYADSVKGRFTISRDNAKNTVYLQMNSLKPEDTAVYYCAKLSYLYRYDYWGQGTQVTVSS | high polyreactivity |
| QVQLVESGGGLVQAGGSLRLSCAASGFIFTKNAMGWYRQAPGKDRVLVAAITSSGGNTYYADSVKRRFTIARDNAKNTVYLQMNSLKPEDTAVYYCAASRFLRMYWGQGTQVTVSS | high polyreactivity |
| QVQLVESGGGLVQAGGSLRLSCAASGRIFSRYAMGWYRQAPGKERELDAAINKSGGSTYYADSVKGRFTISRDNAKHTVYLQMNSLKPEDTAVYYCAADGRLRGYGYWGQGTQVTVSS | high polyreactivity |
| QVQLVESGGGLVQAGGSLRLSCAASGRTFSPYAMGWYRQAPGKERELVAAITNGGSTHYADSVKGRFTISRDNAKNTVYLQMNSLKPEDTAVYYPYDYWGQGTQVTVSS | low polyreactivity |
| QVQLVESGGGLVQAGGSLRLSCAASGRTYGIYAMGWYRQAPGKEREFVAAISWSSGGSTYYADSVKGRFTISRDNAKNTVYFQMISLKPEDTAVYYCNVDTIYNLESDYWGQGTQVTVSS | low polyreactivity |
| QVQLVESGGGLVQAGGSLRLSCAASGSTFGVNDMGWYRQAPGKERELVAAISRGAITNYADSVKGRFTISRDNAKNTVYLQMNSLKPEDTAVYYCAAGFVTYYVPQYKEYGYDYWGQGTQVTVSS | low polyreactivity |
| QVQLVESGGGLVQAGGSLRLSCAASGSTFKRYTMGWYRQAPGKERELVAAISTSSGSTYFADSVKGRFTISRDNAKISVYLQMNSLKPEDSAVYYCDAVRLRQTYPKYNYWGQGTQVTVSS | high polyreactivity |
| QVQLVESGGGLVQAGGSLRLSCAASGRTLRSYTMGWYRQAPGKERELVAAINWNGGTTYYADSVKGRFTISRDNAKNTVYLQMNSLKAEDTAVYYCAAESSRWHTYWYSLSNLGRGYWGQGTQVTVSS | high polyreactivity |
